These results are taken from article PMC2840706.

In assay [1] the target is HIV-1 CA A14C/E45C/W184A/M185A (HIV-1 (NL4-3)). The assay can be described thus: SEC. In general terms: SEC sorts molecules by how far they enter the pores of the column.
Assay [2] has the same target. Briefly: cross-linking.

Usually stoichiometry N stands for the number of molecules, sites or subunits per partner or assembly. Take “HIV-1 CA A14C/E45C/W184A/M185A (natural protein)”: the stoichiometry N in assay [1] and in assay [2] was 6 throughout.
